Data on two molecules can be found in PMC9171807 (Proceedings of the National Academy of Sciences of the …, 2022).

Numbering of substitutions follows the chain as printed.

The target of assay [1] is T1, 17-residue MSLN C terminus peptide (human).
T1 chain: IPNGYLVLDLSMQEALS
The assay can be described thus: crystal structure.

For assay [2], the target named is MSLN 296 to 591 (Homo sapiens (Human)., UniProt Q13421-3). In words: BLI.
Assay [3] deals with MSLN–585-his (Homo sapiens (Human)., UniProt Q13421-3). The assay can be described thus: ELISA.

B1: Fab fragment of mAb 15B6 (Fab, V domains shown)
VH: EVQLQQSGPVLVKPGASVKISCKASGYSFTGYYMHWVRQSNGKSLEWIGRINPYTGVPSYKHNFKDKASLTVDKSSSTAYMELHSLTSEDSAVYYCARELGGYWGQGTTLTVSS
VL: QAVVTQESALTTSPGETVTLTCRSSTGAVTTGNYPNWVQEKPDHLFTGLIAGTNNRAPGVPARFSGSLIGDKAALTITGAQTEDEAIYFCALWFSSHWVFGGGTKLTVL
Consider B1, for which the binding result in assay [1] is “binds”; in assay [2] it was “no binding”.

B2: monoclonal antibody (mAb) 15B6 (antibody, V domains shown)
VH: B1 VH with N41L, G42V, S44R
VL: B1 VL
For the molecule B2, in assay [3], the binding result was “no binding”.
